The values that follow come from the RNAGym collection of RNA variant scans (doi:10.1073/pnas.2313332121).

To fix the notation:
B1: TPR t1 (parent)
chain: GACCAAUCUGCCCUCAGAGCUCGAGAACAUCUUCGGAUGCAGAGGAGGCAGGCUUCGGUGGCGCGAUAGCGCCAACGUCCUCAACCUCCAAUGCAUCCCACCACAUGAUGAUGCCUGAAGAGCCUUGGUUUUUUG

The data set covers variants of B1. Nature of the data set: polymerase ribozyme fitness, log enrichment relative to wild type (log ratio); higher = more active; in vitro selection for triplet polymerase activity. In outline:
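Only genotypes with ≥10 input reads and ≥1 read per output were kept after Illumina sequencing of input and output libraries. These libraries were PCR-built, transcribed mutants of each subunit of a heterodimeric triplet polymerase ribozyme, each put through one triplicate in vitro selection round with frozen incubation at −7 °C, gel excision of extended constructs, streptavidin-bead capture and RT-PCR. Fitness is a logarithmic ratio of genotype enrichment to wild-type enrichment, from inverse-variance-weighted replicate averages, with the logarithm in base 2.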
On to C56A G69U A119G, for which the “polymerase ribozyme fitness (log ratio)” value worked out at 0.438.
On to A50C A91G C124A U133A, for which the “polymerase ribozyme fitness (log ratio)” value came to 1.25.
Take U87G A103C U106C C124G: the “polymerase ribozyme fitness (log ratio)” value is -1.08.
As for A29C G71A C88G C123A U131C, the figure is -4.27; as for C8G A50G G63A U112A G122A, -1.09.
Consider G35A C94G C123G U129C, for which the “polymerase ribozyme fitness (log ratio)” value is -5.78.
Take C8G G23U A24U A41C G60U C86G C101A G120A: the “polymerase ribozyme fitness (log ratio)” value is -7.63.
The value for C15U A41U G48U was -3.71; that for C11G C12G C73U C123G U125A was -2.92.
On to C4G C8G U9G U21G U96G A111U, for which the “polymerase ribozyme fitness (log ratio)” value is -3.56.
As for U14G C82U G93C, the figure is -2.71; as for G61U C104U U116A, -2.46; as for A118G C124G, -0.0684.
As for A16U A37G G113A, the figure is -4.83; as for C49U G120C, 0.88; as for A5G G77U G113U G122C, -3.27.
The value for G45A U130A was -1.49; that for G42A C56A U112A G120A was -4.77.
For A6U A50C, the “polymerase ribozyme fitness (log ratio)” value came out at 0.0675.
For the variant G44A C98U C104U U116C, the “polymerase ribozyme fitness (log ratio)” value is -4.16.
As for G48U A105U, the figure is -2.27.
As for U55A A84C, the figure is 0.0901.
As to C3A G48U, the “polymerase ribozyme fitness (log ratio)” value is -2.67.
As for C28U G93A C101U, the figure is -3.39; as for C8G C15U C70U, -0.473; as for A74G U96G, -0.295.
As for U59A C70U U96C, the figure is -1.25; as for A27C U54A G71A C115A U129A, -5.86; as for U7A C70U, -0.0171.
Regarding A68G C101G, the “polymerase ribozyme fitness (log ratio)” value was -3.93.
Consider A16C A41U G52C C64G C82G G110C, for which the “polymerase ribozyme fitness (log ratio)” value was -6.92.
The value for G45U C76G U112A A121U was 0.648; that for A24U G35C C49A G63A A111G C124U G135A was -6.36; that for C73U G107A A108G G120A C124A was -3.12.
Consider C13U G61C A100U A111G G113A, for which the “polymerase ribozyme fitness (log ratio)” value was -5.12.
The value for C4A G61A G127A was -2.92; that for A2G A18G G19C A83C U92A C114A G128C was -3.26.
With G23C C56A U59G G113A, the “polymerase ribozyme fitness (log ratio)” value was -6.74.
As for C62A G120U, the figure is 0.191; as for C4G G69C G127A, -2.67; as for G17U C49U, -2.42.
The value for G47C G77U U116G was -3.46; that for U32C G52U G77U C79A A90G C115U U126A was -5.37; that for G36C G47U U55G G61U C101U U132A was -3.11.
As for U9G G19U A46C C56U, the figure is -3.13; as for C70U C82G A118G, -1.41; as for C53U C70U A74G, -3.92.
Turning to C4A, the “polymerase ribozyme fitness (log ratio)” value was -1.19.
Turning to A5U C12U U21G A27C A46G A90G G120U, the “polymerase ribozyme fitness (log ratio)” value was -2.99.
Turning to G71A C79G, the “polymerase ribozyme fitness (log ratio)” value was -3.16.
For the variant U78A A100C, the “polymerase ribozyme fitness (log ratio)” value was -1.08.
As to A2U A5C, the “polymerase ribozyme fitness (log ratio)” value was -2.09.
The value for C40U A41C C56A C73U C114A was -3.67; that for C13G A29G G42A was -5.99; that for C12U G69U U78G A100U was -0.359.
The value for G63U U87A C114A was -3.29; that for A46U was -1.11; that for C56U G127C was -1.62.
C3A G39U: the “polymerase ribozyme fitness (log ratio)” value is -2.46.
A26U C82G C97A C98A U112A: the “polymerase ribozyme fitness (log ratio)” value was -6.74.
As for C15U G47U G52C C53A C124G, the figure is -1.51; as for C8G C97U C102U, -1.4; as for C13A U78G C88A A105U, -4.55.
Regarding G39U C76U C79G, the “polymerase ribozyme fitness (log ratio)” value was -1.98.
Take A18C C20U C88G G110C: the “polymerase ribozyme fitness (log ratio)” value is -4.72.
On to C99U C115A, for which the “polymerase ribozyme fitness (log ratio)” value was -3.86.
Turning to G45A U55C C62A C89G, the “polymerase ribozyme fitness (log ratio)” value was -3.49.
Turning to G48C C56G C62U U78C C115U C124A, the “polymerase ribozyme fitness (log ratio)” value is -2.1.
For the variant G63U C85U, the “polymerase ribozyme fitness (log ratio)” value was -2.96.
Regarding C40A G57U G122U, the “polymerase ribozyme fitness (log ratio)” value was -2.54.
On to C13A G69U A74U U87A A100C U109A, for which the “polymerase ribozyme fitness (log ratio)” value is -5.82.
The value for C12G A46C C53A C104A C123U was -1.14.
In the case of C15U G51U G60A, the “polymerase ribozyme fitness (log ratio)” value is -5.07.
The value for C11U C12A U14G G36U was -4.16; that for C53G C70A was -3.68; that for C40U G51A G71C was -4.85.
Take C64A U112G: the “polymerase ribozyme fitness (log ratio)” value is -6.64.
With G48U U92G, the “polymerase ribozyme fitness (log ratio)” value was -3.54.
For the variant G44C G113C, the “polymerase ribozyme fitness (log ratio)” value is -3.05.
Consider C64U G117C, for which the “polymerase ribozyme fitness (log ratio)” value was -2.58.
Take A2U C72G C101G C124A: the “polymerase ribozyme fitness (log ratio)” value is -2.28.
On to A50U G51A C64U C82A A119G, for which the “polymerase ribozyme fitness (log ratio)” value is -0.277.
As for A29U G61U U106G, the figure is -1.91.
The value for C56A C72U U109G was -5.76; that for U96G C114A was 0.0255.
The value for A16U G60U U87G G122A U126C was -3.42.
Regarding U14G C70G U116G, the “polymerase ribozyme fitness (log ratio)” value was -5.13.
As to G63U C73U, the “polymerase ribozyme fitness (log ratio)” value is -2.45.
Take G42A U87C C89G A90G C115U: the “polymerase ribozyme fitness (log ratio)” value is -5.47.
As for C8G G36A G44A C70G, the figure is -4.2; as for C64A U92A C98U G110C C114A U133A, -6.59; as for G60U C79U U81A C97A U106A, -6.56.
Take A41C G61C G93C: the “polymerase ribozyme fitness (log ratio)” value is -4.23.
With C8G U14C G39C A100C, the “polymerase ribozyme fitness (log ratio)” value is -0.867.
Consider A5C U14C U54A C88U C124A, for which the “polymerase ribozyme fitness (log ratio)” value turned out to be 1.25.
As for A84U U133A, the figure is -0.823.
For the variant C13U C62U C85A U106A, the “polymerase ribozyme fitness (log ratio)” value is -1.41.
For G61A G113C, the “polymerase ribozyme fitness (log ratio)” value is -1.78.
Turning to U7C U21C A83G G120A, the “polymerase ribozyme fitness (log ratio)” value turned out to be 0.428.
As for G71U C104A, the “polymerase ribozyme fitness (log ratio)” value is -1.81.
In the case of C89U U133G, the “polymerase ribozyme fitness (log ratio)” value was -0.403.
On to C53G C86A, for which the “polymerase ribozyme fitness (log ratio)” value was -1.75.
As for C53U G71U U81A C123U G135A, the figure is -0.21; as for C11U C123U, 1.77; as for C12G A27G G39C, -3.18.
On to C76A C85A, for which the “polymerase ribozyme fitness (log ratio)” value was -0.928.
Take A46G C53U: the “polymerase ribozyme fitness (log ratio)” value was -1.01.
With C53G C101G, the “polymerase ribozyme fitness (log ratio)” value is -1.65.
As for C56G A103U U109G, the figure is -6.5.
As for G17C G19U G63U A91C C124A, the figure is -5.7; as for C8A U33A G42U U112A C123A, -6.39.
Turning to C22U C62A, the “polymerase ribozyme fitness (log ratio)” value is -4.41.
The value for U78C A111G G117A was -2.7; that for C101G C123U was -0.756.
Turning to C12U A83U, the “polymerase ribozyme fitness (log ratio)” value stood at 0.364.
As to A2U A18G U32C G93U C124G U133G, the “polymerase ribozyme fitness (log ratio)” value was -2.99.
The value for U14A C40U C64U A91U was -4.67; that for G19A C34A C89A was -6.24; that for G57C U125A was -0.636.
With C12U C20A A75C C114A G117U, the “polymerase ribozyme fitness (log ratio)” value is -5.53.
Consider C3A G61U C115A, for which the “polymerase ribozyme fitness (log ratio)” value is -1.78.
As for C20A G51A G61C, the figure is -6.95.
As for G10U G39C A46C U116G, the figure is -3.17; as for A6U C76U, -0.345; as for G48U U59A G60U G122A C123A, -1.51.
As for G48U C73U U109A G110U A119U, the figure is -4.88; as for A95U, -0.816; as for C56U G110U, -0.767.
Turning to G10A C49G U133A, the “polymerase ribozyme fitness (log ratio)” value was -0.21.
On to G117C U129A, for which the “polymerase ribozyme fitness (log ratio)” value was -6.61.
The value for C12U C56A U92G C101G A121G was -3.35; that for G52U G69C C73A was -2.55; that for C76U C97U was -0.795.
On to A91G A100C, for which the “polymerase ribozyme fitness (log ratio)” value was -2.5.
As for C104A G128A, the figure is -3.67; as for A26G C62U U133A, -4.26.
As for C22G G47C C104A, the figure is -4.76; as for G69C C70A A91C, -7.25; as for U112G C123A, -2.
The value for U7G C15A G58C was -0.977.
As for G10U C86A C102U, the “polymerase ribozyme fitness (log ratio)” value is -2.34.
Consider C12U G69C C73U U129G, for which the “polymerase ribozyme fitness (log ratio)” value is -3.42.
Consider C4U C40U, for which the “polymerase ribozyme fitness (log ratio)” value was -1.42.
With C20G G122A, the “polymerase ribozyme fitness (log ratio)” value was -4.
As for C28G G110A G128U, the “polymerase ribozyme fitness (log ratio)” value was -2.89.
As for C114U U129C, the “polymerase ribozyme fitness (log ratio)” value is -3.79.
In the case of C31U C53U, the “polymerase ribozyme fitness (log ratio)” value is -4.91.
For U9A G39C C94U, the “polymerase ribozyme fitness (log ratio)” value was -0.376.
As for A26G G69U, the figure is -2.23.
The value for G58U G61A U131G was -0.481; that for G10A G52C was -0.471.
The value for U59A C124U was 1.47; that for G19U U96G C114A was 1.12; that for C20U C53A G71A A91G was -5.09.
On to C31U G47U, for which the “polymerase ribozyme fitness (log ratio)” value was -6.27.
As for U81G C104U G122A, the figure is -4.33.
The value for C3A C97A C114U was -5.53; that for C20G G135C was -3.68; that for G60A G93C U132A was -1.25.
As for A6C C15U, the figure is -1.98.
Turning to G52U C56U C62U U130A, the “polymerase ribozyme fitness (log ratio)” value is -1.37.
The value for G57U G122A was -1.56; that for A27U G44C U96C was -4.49; that for A111G G117C was -4.52.
The value for G39A A50C C73A C79A C82G was -0.859.
The value for G47A C102U was -2.85; that for C13U C20G was -4.55.
